Results: patent US7323170

Target: human B7.1, membrane associated (human) (UniProt P33681)
Experiment: cell-based or functional assay

Chain of human B7.1, membrane associated (human) (P33681 35-288): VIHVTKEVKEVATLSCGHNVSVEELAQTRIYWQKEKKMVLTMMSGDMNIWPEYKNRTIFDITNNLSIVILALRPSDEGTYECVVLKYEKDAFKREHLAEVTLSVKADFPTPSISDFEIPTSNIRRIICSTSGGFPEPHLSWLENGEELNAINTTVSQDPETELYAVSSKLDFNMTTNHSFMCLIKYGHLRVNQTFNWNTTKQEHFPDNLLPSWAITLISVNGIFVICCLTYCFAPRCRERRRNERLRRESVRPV

inhibition of IL-2 production in mixed lymphocyte reaction (concentration at which inhibitory): 10 µg/mL
Substance: murine anti-B7.1 monoclonal antibody L307.4
